Test results from patent US20190219601A1 (RAMBAM MED TECH, published 2019).
One block for each molecule: values may come before it.

How the values were obtained:
[1] = target: lipidated recombinant human tissue factor (TF) (UniProt P13726); assay: cell-based or functional assay
Target sequence in this assay (P13726 33-295 limits assumed): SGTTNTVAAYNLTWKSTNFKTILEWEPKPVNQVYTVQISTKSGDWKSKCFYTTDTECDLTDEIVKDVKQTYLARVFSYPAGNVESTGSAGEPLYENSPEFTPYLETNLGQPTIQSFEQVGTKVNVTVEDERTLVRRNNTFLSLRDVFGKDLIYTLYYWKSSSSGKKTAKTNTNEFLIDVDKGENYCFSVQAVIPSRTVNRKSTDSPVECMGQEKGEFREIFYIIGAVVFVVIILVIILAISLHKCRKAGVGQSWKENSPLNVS

[2] = target: lipidated recombinant human tissue factor (TF) (UniProt P13726)
Target sequence in this assay (P13726 33-295): as the sequence (P13726 33-295 limits assumed) above

[3] = target: lipidated recombinant human tissue factor (TF) (human, UniProt P13726 33-295, limits assumed); assay: cell-based or functional assay

Molecule: enzymatically inactive heparanase (double mutant), mutated at Glu225 and Glu343 (from UniProt Q9Y251 36-543) (enzyme)
factor Xa generation with conditioned medium of HEK-293 cells (chromogenic substrate; TF, factor VIIa, factor X) [1]: 2 fold

Molecule: recombinant active heparanase GS3 (single chain GS3 active heparanase gene construct comprising the 8 and 50 kDa heparanase subunits)
factor Xa level (chromogenic substrate; purified TF, factor VIIa, factor X) [2]: Addition of heparanase induced 2 folds increase in Xa level
thrombin generation (chromogenic substrate; TF, factor VIIa, factor X, prothrombin) [2]: Note a 3-fold increase in coagulation activity in the presence of heparanase.

More lines, now with the values ahead:

factor Xa generation with conditioned medium of HEK-293 cells (chromogenic substrate; TF, factor VIIa, factor X) [1]: 2 fold
Molecule: full-length human heparanase (65 kDa) (from UniProt Q9Y251 36-543) (enzyme)

factor Xa generation at reduced TF levels (absorbance at 405 nm) [3]: 3 fold
factor Xa generation with conditioned medium of HEK-293 cells (chromogenic substrate; TF, factor VIIa, factor X) [3]: 2 fold
B1: recombinant active heparanase GS3 (single chain GS3 active heparanase gene construct comprising the 8 and 50 kDa heparanase subunits) (enzyme)
chain: QDVVDLDFFTQEPLHLVSPSFLSVTIDANLATDPRFLILLGSPKLRTLARGLSPAYLRFGGTKTDFLIFDPKKESTFEERSYWQSQVNQDICKYGSIPPDVEEKLRLEWPYQEQLLLREHYQKKFKNSTYSRSSVDVLYTFANCSGLDLIFGLNALLRTADLQWNSSNAQLLLDYCSSKGYNISWELGNEPNSFLKKADIFINGSQLGEDFIQLHKLLRKSTFKNAKLYGPDVGQPRRKTAKMLKSFLKAGGEVIDSVTWHHYYLNGRTATKEDFLNPDVLDIFISSVQKVFQVVESTRPGKKVWLGETSSAYGGGAPLLSDTFAAGFMWLDKLGLSARMGIEVVMRQVFFGAGNYHLVDENFDPLPDYWLSLLFKKLVGTKVLMASVQGSKRRKLRVYLHCTNTDNPRYKEGDLTLYAINLHNVTKYLRLPYPFSNKQVDKYLLRPLGPHGLLSKSVQLNGLTLKMVDDQTLPPLMEKPLRPGSSLGLPAFSYSFFVIRNAKVAACI
